Drawing on the Human Domainome abundance scans (Beltran et al. 2025), this text covers abundance fitness for 38 variants.

± gives the uncertainty stated by the source.

To fix the notation:
B1: Far upstream element-binding protein 1, residues 98 to 169; numbered along this chain, Q96AE4 (parent)
chain: RSVMTEEYKVPDGMVGFIIGRGGEQISRIQQESGCKIQIAPDSGGLPERSCMLTGTPESVQSAKRLLDQIVE

The variants in the data set derive from B1. Description: abundance fitness (aPCA) (normalised: wild type 0, dead -1); higher = more abundant; growth selection in yeast, the domain comes from the species named. Conditions: Homo sapiens.
For the variant RSVMTEEYKVPDGMVGFIIGRGGEQISRIQQESGCKIQIAPDSGGWPERSCMLTGTPESVQSAKRLLDQIVE, the abundance fitness was -0.132 ± 0.031.
RSVMTEEYKVPDGMVGFIIGRGGEQISRIQQESGCKIQIAPDSGGRPERSCMLTGTPESVQSAKRLLDQIVE: the abundance fitness is -0.006 ± 0.025.
The result for RSVMTEEYKVPDGMVGFIIGRGGEQISRIQQESGCKIQIAPDSGGYPERSCMLTGTPESVQSAKRLLDQIVE reads -0.093 ± 0.049; that for RSVMTEEYKVPDGMVGFIIGRGGEQISRIQQESGCKIQIAPDSGGTPERSCMLTGTPESVQSAKRLLDQIVE, -0.006 ± 0.037.
For the variant RSVMTEEYKVPDGMVGFIIGRGGEQISRIQQESGCKIQIAPDSGGLPHRSCMLTGTPESVQSAKRLLDQIVE, the abundance fitness is -0.114 ± 0.054.
The result for RSVMTEEYKVPDGMVGFIIGRGGEQISRIQQESGCKIQIAPDSGGLPPRSCMLTGTPESVQSAKRLLDQIVE reads -0.088 ± 0.038.
The result for RSVMTEEYKVPDGMVGFIIGRGGEQISRIQQESGCKIQIAPDSGGLPKRSCMLTGTPESVQSAKRLLDQIVE reads -0.084 ± 0.042.
The result for RSVMTEEYKVPDGMVGFIIGRGGEQISRIQQESGCKIQIAPDSGGLPCRSCMLTGTPESVQSAKRLLDQIVE reads -0.119 ± 0.038; that for RSVMTEEYKVPDGMVGFIIGRGGEQISRIQQESGCKIQIAPDSGGLPWRSCMLTGTPESVQSAKRLLDQIVE, 0.004 ± 0.031.
With RSVMTEEYKVPDGMVGFIIGRGGEQISRIQQESGCKIQIAPDSGGLPTRSCMLTGTPESVQSAKRLLDQIVE, the abundance fitness is -0.028 ± 0.036.
The figure for RSVMTEEYKVPDGMVGFIIGRGGEQISRIQQESGCKIQIAPDSGGLPFRSCMLTGTPESVQSAKRLLDQIVE is -0.015 ± 0.036; for RSVMTEEYKVPDGMVGFIIGRGGEQISRIQQESGCKIQIAPDSGGLPDRSCMLTGTPESVQSAKRLLDQIVE it is -0.059 ± 0.041.
The result for RSVMTEEYKVPDGMVGFIIGRGGEQISRIQQESGCKIQIAPDSGGLPSRSCMLTGTPESVQSAKRLLDQIVE reads -0.057 ± 0.03.
Regarding RSVMTEEYKVPDGMVGFIIGRGGEQISRIQQESGCKIQIAPDSGGLPLRSCMLTGTPESVQSAKRLLDQIVE, the abundance fitness worked out at 0.001 ± 0.029.
The result for RSVMTEEYKVPDGMVGFIIGRGGEQISRIQQESGCKIQIAPDSGGLPARSCMLTGTPESVQSAKRLLDQIVE reads -0.041 ± 0.03; that for RSVMTEEYKVPDGMVGFIIGRGGEQISRIQQESGCKIQIAPDSGGLPNRSCMLTGTPESVQSAKRLLDQIVE, -0.019 ± 0.05.
As to RSVMTEEYKVPDGMVGFIIGRGGEQISRIQQESGCKIQIAPDSGGLPQRSCMLTGTPESVQSAKRLLDQIVE, the abundance fitness was -0.085 ± 0.041.
The figure for RSVMTEEYKVPDGMVGFIIGRGGEQISRIQQESGCKIQIAPDSGGLPIRSCMLTGTPESVQSAKRLLDQIVE is -0.057 ± 0.044; for RSVMTEEYKVPDGMVGFIIGRGGEQISRIQQESGCKIQIAPDSGGLPGRSCMLTGTPESVQSAKRLLDQIVE it is -0.045 ± 0.026; for RSVMTEEYKVPDGMVGFIIGRGGEQISRIQQESGCKIQIAPDSGGLPVRSCMLTGTPESVQSAKRLLDQIVE it is -0.035 ± 0.028.
The figure for RSVMTEEYKVPDGMVGFIIGRGGEQISRIQQESGCKIQIAPDSGGLPMRSCMLTGTPESVQSAKRLLDQIVE is -0.092 ± 0.036; for RSVMTEEYKVPDGMVGFIIGRGGEQISRIQQESGCKIQIAPDSGGLSERSCMLTGTPESVQSAKRLLDQIVE it is -0.014 ± 0.031; for RSVMTEEYKVPDGMVGFIIGRGGEQISRIQQESGCKIQIAPDSGGLKERSCMLTGTPESVQSAKRLLDQIVE it is -0.004 ± 0.04.
The result for RSVMTEEYKVPDGMVGFIIGRGGEQISRIQQESGCKIQIAPDSGGLMERSCMLTGTPESVQSAKRLLDQIVE reads -0.088 ± 0.035; that for RSVMTEEYKVPDGMVGFIIGRGGEQISRIQQESGCKIQIAPDSGGLAERSCMLTGTPESVQSAKRLLDQIVE, -0.012 ± 0.031; that for RSVMTEEYKVPDGMVGFIIGRGGEQISRIQQESGCKIQIAPDSGGLFERSCMLTGTPESVQSAKRLLDQIVE, -0.084 ± 0.052.
With RSVMTEEYKVPDGMVGFIIGRGGEQISRIQQESGCKIQIAPDSGGLLERSCMLTGTPESVQSAKRLLDQIVE, the abundance fitness is -0.02 ± 0.03.
With RSVMTEEYKVPDGMVGFIIGRGGEQISRIQQESGCKIQIAPDSGGLDERSCMLTGTPESVQSAKRLLDQIVE, the abundance fitness is -0.007 ± 0.042.
The result for RSVMTEEYKVPDGMVGFIIGRGGEQISRIQQESGCKIQIAPDSGGLCERSCMLTGTPESVQSAKRLLDQIVE reads -0.061 ± 0.041.
The result for RSVMTEEYKVPDGMVGFIIGRGGEQISRIQQESGCKIQIAPDSGGLEERSCMLTGTPESVQSAKRLLDQIVE reads -0.025 ± 0.036; that for RSVMTEEYKVPDGMVGFIIGRGGEQISRIQQESGCKIQIAPDSGGLRERSCMLTGTPESVQSAKRLLDQIVE, -0.054 ± 0.024.
The result for RSVMTEEYKVPDGMVGFIIGRGGEQISRIQQESGCKIQIAPDSGGLGERSCMLTGTPESVQSAKRLLDQIVE reads -0.019 ± 0.027; that for RSVMTEEYKVPDGMVGFIIGRGGEQISRIQQESGCKIQIAPDSGGLVERSCMLTGTPESVQSAKRLLDQIVE, -0.038 ± 0.029.
RSVMTEEYKVPDGMVGFIIGRGGEQISRIQQESGCKIQIAPDSGGLTERSCMLTGTPESVQSAKRLLDQIVE: the abundance fitness was -0.007 ± 0.033.
For RSVMTEEYKVPDGMVGFIIGRGGEQISRIQQESGCKIQIAPDSGGLIERSCMLTGTPESVQSAKRLLDQIVE, the abundance fitness was -0.049 ± 0.051.
The result for RSVMTEEYKVPDGMVGFIIGRGGEQISRIQQESGCKIQIAPDSGGLQERSCMLTGTPESVQSAKRLLDQIVE reads 0.019 ± 0.038.
The result for RSVMTEEYKVPDGMVGFIIGRGGEQISRIQQESGCKIQIAPDSGGLHERSCMLTGTPESVQSAKRLLDQIVE reads -0.052 ± 0.045; that for RSVMTEEYKVPDGMVGFIIGRGGEQISRIQQESGCKIQIAPDSGGLNERSCMLTGTPESVQSAKRLLDQIVE, -0.012 ± 0.052.
